The test concerns the target GST-Trs33, bacterially expressed (S. cerevisiae) (UniProt Q99394). The test is described as follows: pull-down.

Results on one substance are retold here after article PMC2794200.

Sequence of UniProt Q99394 (Q99394 whole entry): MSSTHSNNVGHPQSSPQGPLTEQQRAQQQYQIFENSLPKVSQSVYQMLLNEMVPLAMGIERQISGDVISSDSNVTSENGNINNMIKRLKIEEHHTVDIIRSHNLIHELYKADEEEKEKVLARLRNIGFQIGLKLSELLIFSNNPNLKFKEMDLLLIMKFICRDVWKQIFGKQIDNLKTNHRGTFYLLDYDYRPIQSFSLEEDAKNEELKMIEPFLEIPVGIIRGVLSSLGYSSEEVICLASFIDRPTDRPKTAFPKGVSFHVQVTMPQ

Consider “Trs130-HA, bacterially expressed (from UniProt Q03660 1-1102) (natural protein)”, for which the percent co-precipitated amounted to 0.5%.
